Measured values taken from US20200102355A1.

Experiments:
[1] = target: TST (BMC-T1 / HO-5812 with SpyTag inserted on the lumenal side, flanked by six residue glycine-serine linkers) (Haliangium ochraceum); assay: calculated from fluorescence intensity of purified shells
[2] = target: TSC (BMC-T1 / HO-5812 with SpyCatcherΔN1ΔC2 inserted on the lumenal side, flanked by six residue glycine-serine linkers) (Haliangium ochraceum) (UniProt D0LHE3); assay: as above
[3] = target: STprobe (SpyTag-mTurquoise2-TEV protease cleavage site-tetracysteine motif-6xHis permeability probe)

Sequence of TST (BMC-T1 / HO-5812 with SpyTag inserted on the lumenal side, flanked by six residue glycine-serine linkers) (Haliangium ochraceum) (D0LHE3 whole entry): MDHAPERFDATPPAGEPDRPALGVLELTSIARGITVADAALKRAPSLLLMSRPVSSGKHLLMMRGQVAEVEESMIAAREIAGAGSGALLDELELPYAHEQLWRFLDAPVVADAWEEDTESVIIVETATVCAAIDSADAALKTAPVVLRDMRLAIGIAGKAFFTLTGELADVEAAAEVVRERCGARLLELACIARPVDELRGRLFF

## SCcfp (6xHis-SpyCatcher-mTurquoise2)
[1]
  copies of cfp cargo per shell (copies per shell): 58

## STcfp (mTurquoise2 with N-terminal 13 residue SpyTag and C-terminal hexahistidine tag)
[2]
  copies of cfp cargo per shell (copies per shell): 73

B1: tobacco etch virus protease (TEVp) (protein)
chain: GESLFKGPRDYNPISSTICHLTNESDGHTTSLYGIGFGPFIITNKHLFRRNNGTLLVQSLHGVFKVKNTTTLQQHLIDGRDMIIIRMPKDFPPFPQKLKFREPQREERICLVTTNFQTKSMSSMVSDTSCTFPSSDGIFWKHWIQTKDGQCGSPLVSTRDGFIVGIHSASNFTNTNNYFTSVPKNFMELLTNQEAQQWVSGWRLNADSVLWGGHKVFMSKPEEPFQPVKEATQLMN
[3]
  fluorescence emission shift (FRET of mTurquoise2 to FlAsH) reverted on TEVp addition, probe in uncapped shells: Addition of the FlAsH reagent to the shells results in a fluorescence emission shift which is reverted upon TEVp addition
